Positions count from the first letter of the chain named.

For orientation: Kd means the equilibrium constant for the complex coming apart. The term EC50 denotes the concentration giving half of the maximal effect. The EC50 (read off the curve) is the concentration needed to bring the measured effect to its halfway point.

Experiment [1] has as its target T1, extracellular domain (ECD) of human IGSF11 (VSIG3), recombinant (human, UniProt Q5DX21 23-241).
T1 construct: biotinylated where captured on streptavidin; tags of the reagent not always stated; also called IGSF11 (ECD domain); ECD-IGSF11
T1 sequence: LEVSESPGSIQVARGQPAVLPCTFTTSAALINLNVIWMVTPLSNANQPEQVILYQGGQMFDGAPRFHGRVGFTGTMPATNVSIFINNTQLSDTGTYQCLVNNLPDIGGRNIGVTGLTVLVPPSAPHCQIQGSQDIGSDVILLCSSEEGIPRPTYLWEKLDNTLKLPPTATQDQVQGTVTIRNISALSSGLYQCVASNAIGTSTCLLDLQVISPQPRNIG
Kind of experiment: SPR.

The target in experiment [2] is T2, human IGSF11 (VSIG3) ECD, His-tagged (human, UniProt Q5DX21 23-241).
T2 construct: in part bought (SinoBiological 13094-H08H); also called HIS-IGSF11; IGSF11-HIS; not shown: His tag
T2 sequence: T1 sequence
Kind of experiment: IgG1 ELISA EC50 0.05-1 nM. (ELISA stands for enzyme-linked immunosorbent assay.)

For experiment [3], the target named is T3, human IGSF11 (VSIG3) expressed on cells (human, UniProt Q5DX21 23-431).
T3 sequence: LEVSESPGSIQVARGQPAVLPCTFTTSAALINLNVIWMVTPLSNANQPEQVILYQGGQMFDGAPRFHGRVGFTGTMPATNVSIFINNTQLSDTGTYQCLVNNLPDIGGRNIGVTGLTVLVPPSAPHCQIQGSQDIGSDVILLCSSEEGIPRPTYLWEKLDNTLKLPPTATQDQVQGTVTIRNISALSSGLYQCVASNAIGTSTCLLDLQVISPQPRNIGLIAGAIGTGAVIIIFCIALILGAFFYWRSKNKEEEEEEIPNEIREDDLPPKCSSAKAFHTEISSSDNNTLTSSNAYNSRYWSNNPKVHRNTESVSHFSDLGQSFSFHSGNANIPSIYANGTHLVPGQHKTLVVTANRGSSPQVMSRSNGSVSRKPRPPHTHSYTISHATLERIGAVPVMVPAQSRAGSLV
Kind of experiment: IgG1 FACS HEK-OE.

The target of experiment [4] is T3, human IGSF11 (VSIG3) expressed on cells. In words: IgG1 FACS DMS 273.
The target of experiment [5] is T2, human IGSF11 (VSIG3) ECD, His-tagged. In words: IgG1 ELISA EC50 <0.02 nM.
Experiment [6] addresses T4, IgC2 domain of human IGSF11 fused to murine IgG2a Fc (human, UniProt Q5DX21 137-241).
T4 construct: not shown: murine IgG2a Fc-region
T4 sequence: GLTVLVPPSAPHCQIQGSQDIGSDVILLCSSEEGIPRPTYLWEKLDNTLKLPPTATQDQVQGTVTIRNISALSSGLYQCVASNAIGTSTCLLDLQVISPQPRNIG
Kind of experiment: IgG ELISA.

For experiment [7], the target named is T5, full-length ECD of human IGSF11 fused to murine Fc (human, UniProt Q5DX21 23-241).
T5 construct: also called Fc-fusion IGSF11 ECD; not shown: murine Fc
T5 sequence: T1 sequence
Kind of experiment: IgG ELISA.

The target in experiment [8] is T2, human IGSF11 (VSIG3) ECD, His-tagged. In words: IgG1 ELISA EC50 0.02-0.05 nM.
Experiment [9] concerns the target T3, human IGSF11 (VSIG3) expressed on cells. In words: FACS, DMS 273 cells with IGSF11 siRNA (KD, knock-down control). (In general: A flow cytometer gives signals particle by particle.)
Experiment [10] has the same target. Kind of experiment: FACS, M579-A2-luc cells with scrambled control siRNA (SC).
Experiment [11] shares this target. Kind of experiment: FACS, M579-A2-luc cells with IGSF11 siRNA (KD, knock-down control).
Experiment [12] has the same target. In words: FACS, DMS 273 cells with scrambled control siRNA (SC).
Experiment [13] concerns the target T6, murine IGSF11 expressed on cells (mouse, UniProt P0C673 23-428).
T6 construct: MC38-IGSF11, CT26-IGSF11, MC38-wt (naturally expresses murine IGSF11)
T6 sequence: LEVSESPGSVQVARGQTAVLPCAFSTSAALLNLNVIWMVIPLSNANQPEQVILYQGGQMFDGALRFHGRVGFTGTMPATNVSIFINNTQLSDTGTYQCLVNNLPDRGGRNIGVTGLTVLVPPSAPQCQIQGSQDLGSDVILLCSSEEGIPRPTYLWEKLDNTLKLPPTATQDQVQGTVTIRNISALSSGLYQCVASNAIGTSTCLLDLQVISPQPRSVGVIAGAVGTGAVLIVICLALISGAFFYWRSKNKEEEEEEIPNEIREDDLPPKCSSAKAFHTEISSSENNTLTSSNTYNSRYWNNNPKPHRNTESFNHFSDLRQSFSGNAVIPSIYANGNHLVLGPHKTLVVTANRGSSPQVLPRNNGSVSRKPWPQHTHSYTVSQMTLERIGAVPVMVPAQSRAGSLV
In words: IgG FACS CT26-IGSF11.
Excerpt: (§1) Unbound antibodies were removed by washing the cells three time with FACS buffer. Bound antibodies were detected with a mouse anti-human IgG antibody conjugated with AlexaFluor647.

The target in experiment [14] is T6, murine IGSF11 expressed on cells. Kind of experiment: IgG FACS MC38-IGSF11.
Excerpt: as §1
Experiment [15] deals with T2, human IGSF11 (VSIG3) ECD, His-tagged. In words: ELISA: IGSF11-HIS coated, IgG1 dilution series, anti-human antibody-HRP, TMB.
Experiment [16] has the same target. Kind of experiment: blocking ELISA: VSIR-Fc immobilised, IgG dilution series pre-incubated with 200 nM IGSF11 ECD-His, bound IGSF11 detected with anti-His-HRP.

B1: A-034 (IgG1 format) (antibody, V domains shown)
VH: QMQLVQSGGGLVKPGGSLRLSCAASGFTFSSYTMNWVRQAPGKGLEWVSSISSIGTYIYYADSVKGRFTISRDNAKNSLYLQMNSLRAEDTAVYYCARVLLSGSYYGYFDSWGQGTLVTVSS
VL: QSVLTQPPSVSGAPGQRVTISCTGSSSNIGAGYDVHWYQQLPGTAPKLFIYGNSNRPSGVPDRFSGSKSGTSASLAITGLQAEDEADYYCQSYDSSLSGYVFGTGTKVTVL
notes: human IgG1 format
In the case of B1, the Kd in [1] lay within 250 to 500 nM. This molecule also returned an EC50 in experiment [2] of 0.05 to 1 nM.

B2: A-023 (IgG1 format) (antibody, V domains shown)
VH: QVQLVQSGAEVKKPGSSVKVSCKASGGTFSSYAISWVRQAPGQGLEWMGGIIPIFGTANYAQKFQGRVTITADESTSTAYMELSSLRSEDTAVYYCARPKYSSGWFYYYGMDVWGQGTTVTVSS
VL: QSVLTQPPSVSAAPGQKVTISCSGSSSNIGNNYVSWYQQLPGTAPKLLIYDNNKRPSGIPDRFSGSKSGTSATLGITGLQTGDEADYYCGTWDSSLSVVFGGGTKLTVL
notes: human IgG1 format
With B2, the EC50 in experiment [2] was 0.05 to 1 nM.

B3: A-022 (IgG1 format) (antibody, V domains shown)
VH: EVQLLESGPGLVKPSQTLSLTCTVSGGSISSGGYYWSWIRQHPGKGLEWIGYIYYSGSTYYNPSLKSRVTISVDTSKNQFSLKLSSVTAADTAVYYCARASRSTDYYFDYWGQGTLVTVSS
VL: QPGLTQPPSMSYGLGQTATLTCTGNRNNIGDQGAAWLQQHQGHPPKLLSYRNNNGPSGISERLSASRSGNTASLTISGLQPEDEADYYCSAWDSSLRAWVFGGGTKLTVL
notes: human IgG1 format
B3: the EC50 was 10 to 50 nM in experiment [3]; 10 to 50 nM in experiment [4]; under 0.02 nM in experiment [5]; under 1 nM in experiment [6]; under 1 nM in experiment [7].

B4: A-035 (IgG1 format) (antibody, V domains shown)
VH: QVQLVQSGAEVKKPGASVKVSCKASGYTFTGYYMHWVRQAPGQGLEWMGWINPNSGNTGYAQKFQGRVTMTRNTSISTAYMELSSLRSEDTAVYYCARGRLERGYWYFDLWGRGTLVTVSS
VL: NFMLTQPHSVSESPGRTVTISCTRSSGSITSNYVQWYQQRPGSAPTILIYEDKERPSEVPDRFSGSIDISSNSASLTISGLKTEDEADYYCQSYGGTSQGVLFGGGTKVTVL
notes: human IgG1 format
In the case of B4, the 50% effective concentration (EC50) in [3] is over 50 nM; in [8], 0.02 to 0.05 nM; in [6], 20 to 100 nM; in experiment [7], 1 to 20 nM.

B5: A-027 (IgG1 format) (antibody, V domains shown)
VH: QVQLVQSGAEVKKPGSSVKVSCKASGGTFSSYAISWVRQAPGQGLEWMGGIIPIFGTANYAQKFQGRVTITADKSTSTAYMELSSLRSEDTAVYYCARARGSTWGYFDYWGQGTLVTVSS
VL: EIVLTQSPASLSLSPGERVTLSCRASQSVSNYLAWYQQKPGQAPRLLIYDASNRATGIPARFSGSGSGTDFTLTISSLEPEDFAVYYCQQRDNWPLTFGGGTKVEIK
notes: human IgG1 format
For the molecule B5, the “% binding (FACS heat-map)” value in experiment [9] amounted to 2.63%; in experiment [10] it was 3.32%; in experiment [11] it was 2.5%; in experiment [12], 14.3%. In addition, the EC50 is over 50 nM in experiment [3], 1 to 20 nM in experiment [6] and 1 to 20 nM in experiment [7].

B6: A-009 (IgG1 format) (antibody, V domains shown)
VH: B5 VH with K74E, A99G, S102F, T103G, W104E, G105L
VL: ETTLTQSPATLSVSPGERATLSCRASQGVRSNIAWYQQKPGQAPRLLIYDSSTRATGIPARFSGSGSGTEFTLTISSLQSEDFAVYSCQQYKNWPRTFGQGTKVEIK
notes: human IgG1 format
For the molecule B6, the EC50 in experiment [2] fell in the range of 0.05 to 1 nM.

B7: C-016 (IgG1 format) (antibody, V domains shown)
VH: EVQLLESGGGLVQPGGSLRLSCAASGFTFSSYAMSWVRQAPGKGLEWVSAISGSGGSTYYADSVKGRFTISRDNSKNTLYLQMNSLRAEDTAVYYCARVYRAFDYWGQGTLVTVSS
VL: ASVLTQPPSVSAAPGQKVTISCSGSSSNIGNNYVSWYQQLPGTAPKLLIYDNNKRPSGIPDRFSGSKSGTSATLGITGLQAEDEADYYCHLYTEAESHWVFGGGTKLTVL
With B7, the concentration giving a half-maximal response (EC50) in [13] was 20 to 50 nM; in experiment [14], 50 to 100 nM.

B8: B-004 (chain-swapped IgG1) (antibody, V domains shown)
VH: EVQLLESGGGLIQPGGSLRLSCAVSGFTVSSNYMSWVRQAPGKGLEWVSVIYSGGSTYYADSVKGRFTISRDNSKNTLYLQMNSLRAEDTAVYYCARGNPYYYGDLQVNFDYWGQGTLVTVSS
VL: QAVVTQEPSLTVSPGGTVTLTCASSTGAVTSGYYPNWFQQKPGQAPRPLIYSTSNKHSWTPARFSGSLLGGKAALTLSGVQPDDEAEYYCLLYYGGDWVFGGGTKLTVL
notes: human IgG1 format; also called B4
In the case of B8, the “EC50 (read off the curve)” value in experiment [15] was about 0.02 nM. In addition, the “IC50 (read off the curve)” value in experiment [16] was about 5 nM.

B9: B-008 (chain-swapped IgG1) (antibody, V domains shown)
VH: B8 VH with L5V, V24A
VL: B8 VL with L20P, A23G, Y33N, Y34L, P48A, F64I, D83E, D97A
notes: human IgG1 format; also called B8
As to B9, the “IC50 (read off the curve)” value in experiment [16] was about 4 nM.

B10: A-003 (IgG1 format) (antibody, V domains shown)
VH: VQLVQSGAEVKKPGSSVKVSCKASGGTFSSYAISWVRQAPGQGLEWMGGIIPIFGTANYAQKFQGRVTITADESTSTAYMELSSLRSEDTAVYYCASPRIQLWAAGGFDYWGQGTLVTVSS
VL: QSALTQPASVSGSPGQSITISCTGTSSDVGGYNLVSWYQQHPGKAPKLMIYDVSNRPSGVSNRFSGSKSGNTASLTISGLQAEDEADYYCSSFTTSTTLVFGGGTKLTVL
notes: human IgG1 format
B10 returned an EC50 in experiment [2] of 0.05 to 1 nM.

B11: A-029 (IgG1 format) (antibody, V domains shown)
VH: QVQLVQSGAEVKKPGSSVKVSCKASGGTFSSYAISWVRQAPGQGLEWMGGIIPIFGTANYAQKFQGRVTITADESTGTAYMELSSLRSEDTAVYYCARSYYYYYGMDVWGQGTTVTVSS
VL: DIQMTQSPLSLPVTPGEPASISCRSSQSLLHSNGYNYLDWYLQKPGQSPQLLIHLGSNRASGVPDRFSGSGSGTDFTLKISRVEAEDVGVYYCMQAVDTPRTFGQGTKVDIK
notes: human IgG1 format
B11 returned an EC50 in experiment [2] of 0.05 to 1 nM.

B12: A-025 (IgG1 format) (antibody, V domains shown)
VH: QVQLVQSGAEVKKPGSSVKVSCKASGGTFSSYAISWVRQAPGQGLEWMGGIIPIFGTANYAQKFQGRVTITADESTSTAYMELTSLRSEDTAVYYCARGGWLRQNWFDPWGQGTLVTVSS
VL: SSELTQDPAVSVALGQTVRITCQGDSLRSYYASWYQQKPGQAPVLVIYGKNNRPSGIPDRFSGSSSGNTASLTITGAQAEDEADYYCNSRDSSGNHPRVFGGGTKLTVL
notes: human IgG1 format
B12: the EC50 in experiment [2] lay in the range of 0.05 to 1 nM.

(Values after patent publication US20220372138A1 (IOMX THERAPEUTICS, published 2022).)
